Assay results: patent publication US5928915A, “CHO cell sialidase by recombinant DNA technology” (Genentech, Inc., priority 1997, dated 1999)

Columns and labels:
Test in all cases: Sialidase kinetic constants with soluble sialylglycoconjugate substrates
Assay type in all cases: biochemical, Chinese hamster
Settings in all cases: other: apparent; standard assay conditions; average of duplicates, relative error about 10%; 37.0 °C
[1] = substrate: CC(=O)N[C@H]1[C@H]([C@H](O)[C@H](O)CO)O[C@@](O[C@H]2[C@@H](O)[C@@H](CO)O[C@@H](O[C@H]3[C@H](O)[C@@H](O)C(O)O[C@@H]3CO)[C@@H]2O)(C(=O)O)C[C@@H]1O
Procedure: (§1) Fluorescent sialidase assays: Standard assay conditions for monitoring the enzyme activity during purification using the fluorescent substrate analog are: 1.3 mM 4-MUNeu5Ac, 50 mM phosphate buffer, pH 6.8, 0.3 mg bovine serum albumin and varying amounts of enzyme in a total volume of 30 μl. After addition of enzyme the samples are incubated at 37° C. in a shaking water bath for 5 minutes. The reaction is terminated and the fluorescence of the liberated umbelliferone is enhanced by the addition of 2 ml of 80 mM glycine-carbonate buffer, pH 9.7. Quantification of the product is made by measuring the fluorescence of the samples with excitation at 365 nm and emission at 450 nm using a standard of 4-methyl umbelliferone. A unit of enzyme activity is defined as a μmol/min of sialic acid liberated.
(§2) Sialidase assays with natural substrates: When natural substrates are tested with the purified enzyme, the amount of released sialic acid is measured using the thiobarbituric acid assay as modified by Uchida [Uchida et al. J. Biochem., 82:1425 (1977)] using sialic acid as standard. The amount of sialic acid in control samples, which include a complete assay mixture incubated without added enzyme is subtracted from each determination. All samples are cleared by centrifugation (1,000×G, 10 min) prior to determining the absorbance at 540 nm.
(§3) Enzyme kinetic parameters: Assay conditions (time and added enzyme) are modified for each substrate so that initial reaction rates are measured. Kinetic parameters are obtained from double reciprocal plots of the substrate saturation curves [Segel, I. H. John Wiley, New York, Enzyme Kinetics, 18 (1975)].

[2] = substrate: CC(=O)N[C@H]1[C@H]([C@H](O)[C@H](O)CO)O[C@@](Oc2ccc3c(C)cc(=O)oc3c2)(C(=O)O)C[C@@H]1O
Procedure: as §1, §2, §3

[3] = substrate: CC(=O)N[C@H]1[C@H]([C@H](O)[C@H](O)CO)O[C@@](OC[C@H]2O[C@@H](O[C@H]3[C@H](O)[C@@H](O)C(O)O[C@@H]3CO)[C@H](O)[C@@H](O)[C@H]2O)(C(=O)O)C[C@@H]1O
Procedure: as §1, §2, §3

[4] = substrate: CC(=O)N[C@H]1[C@H]([C@H](O)[C@H](O)CO)O[C@@](O[C@H](CO)[C@@H](O)[C@@H]2OC(O)(C(=O)O)C[C@H](O)[C@H]2NC(C)=O)(C(=O)O)C[C@@H]1O
Procedure: as §1, §2, §3

B1: CHO cell sialidase (Cricetulus griseus) (protein)
chain: MATCPVLQKETLFQTGDYAYRIPALIYLSKQKTLLAFAEKRLTKTDEHADLFVLRRGSYNADTHQVQWQAEEVVTQAYLEGHRSMSPCPLYDKQTRTLFLFFIAVRGQISEHHQLQTGVNVTRLCHITSTDHGKTWSAVQDLTDTTIGSTHQDWATFGVGPGHCLQLRNTAGSLLVPAYAYRKQPPIHAPAPSAFCFLSHDHGSTWELGHFVSQNSLECQVAEVGTGAERVVYLNARSCLGARVQAQSPNSGLDFQDNQVVSKLVEPPKGCHGSVIAFPNPTSKADALDVWLLYTHPTDSRKRTNLGVYLNQKPLDPTTWSAPTLLATGICAYSDLQNMGHGPDGSPQFGCLYESNNYEEIVFLMFTLKQAFPAVFGAQ
notes: The sialidase described was purified from the cell culture fluid of a single production cell line (CHO 14.16); endogenous in cells; host or cells: CHO 14.16 cells (purified from the cell culture fluid)
Km [1]: 1300 µM
Vmax [1]: 16 µmol/min/mg
Km [2]: 400 µM
Vmax [2]: 18 µmol/min/mg
Km [3]: 1200 µM
Vmax [3]: 4 µmol/min/mg
Km [4]: 3400 µM
Vmax [4]: 11 µmol/min/mg
